Test results taken from patent US9833497B2, “Human originated EGF domain proteins and use of the same” (CHENGDU SOURCEBIO LIMITED-LIABILITY COMPANY, priority 2013, dated 2017).

B1: PRT863 (protein, listed as Homo sapiens)
chain: CFCNGHADQCIPVHGFRPVKAPGTFHMVHGKCMCKHNTAGSHCQHCAPLYNDRPWEAADGKTGAPNECRT
B2: PRT864 (protein, listed as Homo sapiens)
chain: CKCNGHADTCHFDVNVWEASGNRSGGVCDDCQHNTEGQYCQRCKPGFYRDLRRPFSAPDACKP
B3: PRT845 (protein, listed as Homo sapiens)
chain: CQCNGHADTCNEQDGTGCPCQNNTETGTCQGSSPSDRRDCYKYQCAKCRESFHGSPLGGQQCYR
B4: PRT598 (protein, listed as Homo sapiens)
chain: CSCNSHSSRCHFDMTTYLASGGLSGGVCEDCQHNTEGQHCDRCRPLFYRDPLKTISDPYACIP

How the values were obtained:
Assay type in all cases: cell-based
E. coli BL21 = test: MIC against Gram-negative bacteria: E. coli BL21; conditions: 5×10^5 CFU/mL; for MIC (μg/mL) E. coli BL21: 10 h cultivation at 37° C.
Protocol: (§1) 1. Gram-negative bacteria, such as E. coli BL21, Pseudomonas aeruginosa, Klebsiella pneumonia, Enterobacter cloacae, Aeromonas hydrophila, Citrobacter diversus, Moraxella catarrhalis, Proteus mirabilis, Proteus vulgaris, Serratia marcescens, etc were streaked on solid LB medium and cultured respectively. Then, typical clones were picked, inoculated into common liquid LB medium respectively, and cultured at 37° C. with shaking at 185 rpm until the McFarland specific turbidity was 0.5. The bacterial culture of each of Gram-negative bacteria was centrifuged at 4000×g for 3 min, the supernatant was discarded, and the thalli were resuspended with fresh LB medium.
(§2) 2. The above-mentioned bacterial suspensions were diluted and inoculated into 96-well plates with the final concentration of the bacterial suspension being 5×10^5 CFU/mL per well.
(§3) 3. Each of the purified human-originated EGF domain proteins (PRT1 to PRT1498 in Table 1) was added to each of the above wells and subjected to two-fold serial dilution in concentration. Three parallel wells were set up for each concentration in the gradient.
(§4) 4. The above-mentioned 96-well plates were placed and cultured at 37° C. in shaking incubator shaking at 175 rpm. […] The minimal inhibitory concentration MIC is defined as the lowest concentration of the recombinant protein at which there is no growth of the bacteria.

Citrobacter diversus = test: MIC against Gram-negative bacteria: Citrobacter diversus; conditions: 5×10^5 CFU/mL; for MIC (μg/mL) C. diversus: 10 h cultivation at 37° C.
Protocol: as §1, §2, §3, §4

Enterobacter cloacae = test: MIC against Gram-negative bacteria: Enterobacter cloacae; conditions: 5×10^5 CFU/mL; for MIC (μg/mL) E. cloacae: 10 h cultivation at 37° C.
Protocol: as §1, §2, §3, §4

Proteus mirabilis = test: MIC against Gram-negative bacteria: Proteus mirabilis; conditions: 5×10^5 CFU/mL; for MIC (μg/mL) P. mirabilis: 10 h cultivation at 37° C.
Protocol: as §1, §2, §3, §4

Pseudomonas aeruginosa = test: MIC against Gram-negative bacteria: Pseudomonas aeruginosa; conditions: 5×10^5 CFU/mL; for MIC (μg/mL) P. aeruginosa: 10 h cultivation at 37° C.
Protocol: as §1, §2, §3, §4

Moraxella catarrhalis = test: MIC against Gram-negative bacteria: Moraxella catarrhalis; conditions: 5×10^5 CFU/mL; for MIC (μg/mL) M. catarrhalis: 10 h cultivation at 37° C.
Protocol: as §1, §2, §3, §4

Proteus vulgaris = test: MIC against Gram-negative bacteria: Proteus vulgaris; conditions: 5×10^5 CFU/mL; for MIC (μg/mL) P. vulgaris: 10 h cultivation at 37° C.
Protocol: as §1, §2, §3, §4

E. coli DH5α = test: Antibacterial activity: MIC and growth curve against E. coli DH5α in 96-well plate; conditions: minimal inhibitory concentration against E. coli DH5α; 96-well plate, 5×10^5 CFU/mL, 37° C., judged after 8 h
Protocol: 1. E. coli DH5α was exemplified. E. coli DH5α was streaked and cultured on LB solid medium. Then, a typical clone was picked and inoculated into common LB liquid medium, cultured at 37° C. with shaking at 185 rpm until the logarithmic growth phase was reached (OD600 of about 0.5). The bacterial culture was centrifuged at 4000×g for 3 min, the supernatant was discarded, and the thalli were resuspended with fresh LB medium.
2. The above-mentioned bacterial suspension was diluted and inoculated into a 96-well plate with the total volume of 100 μL per well and a bacterial count of 5×10^5 CFU/mL.
3. The recombinant protein hF VII-EGF1 was added to the above-mentioned wells with the final protein concentration in the well of the highest protein concentration being 50 μg/mL. Basing on this final concentration, a two-fold serial dilution was performed till a protein concentration gradient consisting of 50, 25, and 12.5 μg/mL was set up. Three parallel wells were set up for each concentration in the gradient.
as §4, with “plate was” for “plates were”, “rpm. Samples were taken every 30 min, the absorbance values were determined at 600 nm wavelength under a ultra violet spectrophotometer, and an inhibition curve was plotted.” for “rpm.”
According to the experimental procedures in Example 14, the minimal inhibitory concentrations (MIC, μg/mL) of the other human-originated EGF domain proteins (PRT2 to PRT1498 in Table 1) for E. coli DH5α were determined.

Serratia marcescens = test: MIC against Gram-negative bacteria: Serratia marcescens; conditions: 5×10^5 CFU/mL; for MIC (μg/mL) S. marcescens: 10 h cultivation at 37° C.
Protocol: as §1, §2, §3, §4

Aeromonas hydrophila = test: MIC against Gram-negative bacteria: Aeromonas hydrophila; conditions: 5×10^5 CFU/mL; for MIC (μg/mL) A. hydrophila: 10 h cultivation at 37° C.
Protocol: as §1, §2, §3, §4

Klebsiella pneumonia = test: MIC against Gram-negative bacteria: Klebsiella pneumonia; conditions: 5×10^5 CFU/mL; for MIC (μg/mL) K. pneumonia: 10 h cultivation at 37° C.
Protocol: as §1, §2, §3, §4

| Molecule | MIC (μg/mL) E. coli BL21 (E. coli BL21) [µg/mL] | MIC (μg/mL) C. diversus (Citrobacter diversus) [µg/mL] | MIC (μg/mL) E. cloacae (Enterobacter cloacae) [µg/mL] | MIC (μg/mL) P. mirabilis (Proteus mirabilis) [µg/mL] | MIC (μg/mL) P. aeruginosa (Pseudomonas aeruginosa) [µg/mL] | MIC (μg/mL) M. catarrhalis (Moraxella catarrhalis) [µg/mL] | MIC (μg/mL) P. vulgaris (Proteus vulgaris) [µg/mL] | MIC (E. coli DH5α) [mg/L] | MIC (μg/mL) S. marcescens (Serratia marcescens) [µg/mL] | MIC (μg/mL) A. hydrophila (Aeromonas hydrophila) [µg/mL] | MIC (μg/mL) K. pneumonia (Klebsiella pneumonia) [µg/mL] | further results |
| --- | --- | --- | --- | --- | --- | --- | --- | --- | --- | --- | --- | --- |
| B1 | 12.5 | 12.5 | 12.5 | 12.5 | 25 | 12.5 | 25 | 50 | 12.5 | 12.5 | 50 | – |
| B2 | 12.5 | 12.5 | 50 | 50 | 12.5 | 25 | 12.5 | 12.5 | 50 | 25 | 25 | – |
| B3 | 12.5 | 12.5 | 12.5 | 12.5 | 25 | 25 | 12.5 | 25 | 50 | 25 | 25 | – |
| B4 | – | – | – | – | – | – | – | 25 | – | – | – | MIC E. coli BL21 (E. coli BL21; 96-well plate, 37° C., 10 h): 50 mg/L; MIC C. diversus (Citrobacter diversus; 96-well plate, 37° C., 10 h): 50 mg/L; MIC E. cloacae (Enterobacter cloacae; 96-well plate, 37° C., 10 h): 12.5 mg/L; MIC P. mirabilis (Proteus mirabilis; 96-well plate, 37° C., 10 h): 12.5 mg/L; MIC P. aeruginosa (Pseudomonas aeruginosa; 96-well plate, 37° C., 10 h): 12.5 mg/L; MIC M. catarrhalis (Moraxella catarrhalis; 96-well plate, 37° C., 10 h): 25 mg/L; MIC P. vulgaris (Proteus vulgaris; 96-well plate, 37° C., 10 h): 50 mg/L; MIC S. marcescens (Serratia marcescens; 96-well plate, 37° C., 10 h): 25 mg/L; MIC A. hydrophila (Aeromonas hydrophila; 96-well plate, 37° C., 10 h): 25 mg/L; MIC K. pneumonia (Klebsiella pneumonia; 96-well plate, 37° C., 10 h): 50 mg/L |
